Data on two substances can be found in article doi:10.1101/2021.07.09.451618.

The experiment deals with F-actin, rabbit skeletal muscle (rabbit) (UniProt P68135).

For “M15-2IQ : ELC : RLC complex (1:1:1), wild-type MYO15 motor domain (from UniProt P60661 1-151)”, the kcat: extrapolated maximum catalytic rate of the actin-activated ATPase was 5.8 s⁻¹. For the substance “M15-2IQ : ELC : RLC complex (1:1:1), jordan (p.D1647G) MYO15 motor domain (from UniProt P60661 1-151)”, the kcat: extrapolated maximum catalytic rate of the actin-activated ATPase was 0.87 s⁻¹.
